The target of assay [1] is T1, CEACAM3 on transfected HeLa cells (human, UniProt P40198 35-252).
T1 construct: whole, on cells; also called HeLa-CEACAM3; HeLa C3
T1 sequence (looked up): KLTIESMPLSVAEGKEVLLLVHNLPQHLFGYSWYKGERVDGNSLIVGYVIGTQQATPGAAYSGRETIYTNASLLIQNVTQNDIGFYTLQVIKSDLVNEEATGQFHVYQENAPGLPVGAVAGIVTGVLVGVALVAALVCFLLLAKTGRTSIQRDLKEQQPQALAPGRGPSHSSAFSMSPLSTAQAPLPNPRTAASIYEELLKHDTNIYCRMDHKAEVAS
The assay can be described thus: flow cytometry, transfected HeLa. An outline of the steps:
(§1)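 Binding selectivity was assessed by flow cytometry and is expressed as the staining of each HeLa transfectant, each stably carrying a single CEACAM family member. The cells were kept at 37° C, 5.0% CO₂ in DMEM containing 10% fetal bovine serum. Staining used the test antibody followed by a fluorochrome-conjugated isotype-specific secondary antibody, and DAPI marked viability.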

Assay [2] addresses T2, CEACAM8 on transfected HeLa cells (human, UniProt P31997 35-320).
T2 construct: whole, on cells; also called HeLa-CEACAM8; HeLa C8
T2 sequence (looked up): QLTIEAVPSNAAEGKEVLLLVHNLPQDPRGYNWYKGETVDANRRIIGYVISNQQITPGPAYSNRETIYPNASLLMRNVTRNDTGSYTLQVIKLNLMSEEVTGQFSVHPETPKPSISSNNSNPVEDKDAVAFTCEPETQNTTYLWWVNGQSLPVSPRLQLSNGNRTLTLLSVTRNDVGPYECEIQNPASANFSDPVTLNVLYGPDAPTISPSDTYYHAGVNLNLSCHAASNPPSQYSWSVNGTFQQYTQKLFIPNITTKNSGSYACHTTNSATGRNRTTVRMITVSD
The assay can be described thus: flow cytometry, transfected HeLa. The method in brief:
as §1

The target of a further assay is T3, His-tagged CEACAM1 (human, UniProt P13688 35-428).
T3 construct: 45 kDa SPR analyte; also called CEACAM1-HIS; CEACAM1 analyte
T3 sequence: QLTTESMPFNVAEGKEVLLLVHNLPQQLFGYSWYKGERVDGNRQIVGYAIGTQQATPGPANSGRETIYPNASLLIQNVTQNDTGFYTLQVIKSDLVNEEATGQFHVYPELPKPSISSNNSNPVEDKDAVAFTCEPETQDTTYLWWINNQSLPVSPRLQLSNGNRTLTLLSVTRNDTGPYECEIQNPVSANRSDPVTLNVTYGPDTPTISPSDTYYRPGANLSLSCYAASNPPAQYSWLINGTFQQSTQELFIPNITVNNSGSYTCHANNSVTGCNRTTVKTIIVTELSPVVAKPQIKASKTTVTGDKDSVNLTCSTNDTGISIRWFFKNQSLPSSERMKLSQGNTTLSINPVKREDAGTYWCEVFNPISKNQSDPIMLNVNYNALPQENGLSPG
The assay can be described thus: SPR single-cycle, IgG captured. The method in brief:
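Biacore T200 single-cycle kinetics at 25° C in HBS-P+ (pH 7.4): antibodies (purified or HEK EBNA supernatant, 1 μg/ml) captured on Protein A to ~75 RU, His-tagged CEACAM1 analyte at 3.125–50 nM (5-point 2-fold) at 50 μl/min without regeneration. Reference channel Fc1 subtracted.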

B1: chimeric antibody VH0/Vκ0 (antibody, IgG4, V domains shown)
VH: EVQLVESGGDLVKPGGSLKLACAASGFIFSSHGMSWVRQTPDKRLEWVATISSGGTYTYYPDSVKGRFTISRDNDKNTLYLQMNSLKSEDTAMYYCARHDFDYDAAWFAYWGQGTLVTVSS
VL: QIVLTQSPALMSASPGVKVTMTCSANSSVSYMYWYRQKPRSSPKPWIYLTSNLASGVPARFSGSGSGTSYSLTISSMEAEDAATYYCQQWSSNPPTFGSGTKLEIK
notes: IgG4 (S241P), kappa; also called VH0/Vκ0 (control); Chimeric VH0/Vκ0
Regarding B1, in assay [1], the binding result is “no binding”. Besides, in assay [2], the binding result is recorded as “no binding”. In the assay with His-tagged CEACAM1, the Kd came to 42 nM and the “relative KD to VH0/Vκ0” value turned out to be 1.

For the origin of these results see patent US20250074980A1 (BRIGHAM AND WOMEN S HOSPITAL, published 2025).
